Values quoted from earlier work as cited in paper PMC2628467.

Molecular target: RNase H folding intermediate mimic (Escherichia coli) (UniProt P0A7Y4)

RNase H folding intermediate mimic (from UniProt P0A7Y4)
Kd: 500 nM
